Measurements reported in US20230038638A1, “COMPLEMENT FACTOR I-RELATED COMPOSITIONS AND METHODS” (published 2023).
Where a chain is given by its changes, count along the chain named. “And” between values parts separate entries of the source, which are not always exact repeats. Identical values can stand only once.

Experiments:
[1] = biological target: soluble human C3b (human) (UniProt P01024)
human C4b (human) [2] = biological target: T1, human C4b (human) (UniProt P0C0L4)
T1 sequence: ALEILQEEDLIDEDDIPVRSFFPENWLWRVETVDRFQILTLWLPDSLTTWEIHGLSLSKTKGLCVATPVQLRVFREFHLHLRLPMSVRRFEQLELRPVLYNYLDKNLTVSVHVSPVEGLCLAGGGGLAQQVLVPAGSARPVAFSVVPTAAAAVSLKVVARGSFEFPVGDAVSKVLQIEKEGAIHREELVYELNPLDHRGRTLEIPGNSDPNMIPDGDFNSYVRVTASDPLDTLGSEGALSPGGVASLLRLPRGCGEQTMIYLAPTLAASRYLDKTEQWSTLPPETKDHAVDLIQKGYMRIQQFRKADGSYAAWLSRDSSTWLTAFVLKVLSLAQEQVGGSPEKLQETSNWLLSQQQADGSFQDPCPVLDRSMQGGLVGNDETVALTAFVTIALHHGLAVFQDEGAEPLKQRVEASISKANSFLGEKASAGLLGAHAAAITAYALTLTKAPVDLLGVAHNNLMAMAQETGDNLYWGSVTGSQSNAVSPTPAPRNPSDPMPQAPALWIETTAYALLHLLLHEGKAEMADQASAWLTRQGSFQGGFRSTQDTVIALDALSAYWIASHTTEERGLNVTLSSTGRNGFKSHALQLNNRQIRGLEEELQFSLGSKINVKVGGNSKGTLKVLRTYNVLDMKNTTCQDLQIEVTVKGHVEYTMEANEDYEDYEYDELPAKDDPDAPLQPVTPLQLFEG

[3] = biological target: soluble human C3b (human) (UniProt P01024); remark: listed apart in the source
human C4b (human) [4] = biological target: T1, human C4b (human); remark: listed apart in the source
human C4b (human) [5] = biological target: T2, human C4b (human) (UniProt P0C0L5)
T2 sequence: T1 sequence with A151T, D317G, P364L, C365S, L368I, D369H, N420S, V451A, L454R, S530A

Row | Substance | iC3b EC50 [1] [nM] | C4c EC50 (nM) (human C4b (human) [2]) | iC3b Screen Ref Fold (fold of CFI-HSA wild type) [3] | C4b Screen Ref Fold (fold of CFI-HSA wild type) (human C4b (human) [4]) | iC3b Screen Ref Fold (fold of reference) [3] | C4b Screen Ref Fold (fold of reference) (human C4b (human) [4]) | other results
1 | CFI-HSA variant A405G (enzyme) | 21.7 | 158 |  |  |  |  | 
2 | CFI-HSA variant D425H (enzyme) | 10.7 |  |  |  |  |  | C4c EC50 (human C4b (human) [2]): 123 nM
3 | CFI-HSA variant D425I (enzyme) | 13 |  |  |  |  |  | C4c EC50 (human C4b (human) [2]): 112 nM
4 | CFI-HSA variant D425P (enzyme) | 13.6 |  |  |  |  |  | C4c EC50 (human C4b (human) [2]): 640 nM
5 | CFI-HSA variant D425R; Y408L; N531G; E457G; E461Q; R462K; F464Y; E530Y (enzyme) | 4.3 | 12.3 |  |  |  |  | 
6 | CFI-HSA variant D425T (enzyme) | 11.5 |  |  |  |  |  | C4c EC50 (human C4b (human) [2]): 227 nM
7 | CFI-HSA variant D425W (enzyme) | 14.2 |  |  |  |  |  | C4c EC50 (human C4b (human) [2]): 87.6 nM
8 | CFI-HSA variant D425Y (enzyme) | 14.3 |  |  |  |  |  | C4c EC50 (human C4b (human) [2]): 112 nM
9 | CFI-HSA variant D459G (enzyme) | 24.6 | 348 |  |  |  |  | 
10 | CFI-HSA variant D549A (enzyme) | 32.2 | > 1000 |  |  |  |  | 
11 | CFI-HSA variant D549N (enzyme) | 21.9 | 168 |  |  |  |  | 
12 | CFI-HSA variant D549P (enzyme) | 41.7 | > 1000 |  |  |  |  | 
13 | CFI-HSA variant E401G (enzyme) | 8.9 | 126 |  |  |  |  | 
14 | CFI-HSA variant E416A; E457G; E461Q; F464Y; N531G (enzyme) |  | 12 | 1.79 | 4.74 |  |  | 
15 | CFI-HSA variant E457G; D425R; E530Y (enzyme) | 3.6 | 234 |  |  |  |  | 
16 | CFI-HSA variant E457G; E461Q; E530F; N531G; P558S (enzyme) |  | 17.8 | 1.37 and 1.5 | 4.57 and 4.37 |  |  | 
17 | CFI-HSA variant E457G; E461Q; F464Y; E530Y; N531G; P558S (enzyme) |  | 32.4 | 2.44 | 4.03 |  |  | 
18 | CFI-HSA variant E457G; E461Q; F464Y; N531G; R557K (enzyme) |  | 10.6 | 2.17 | 4.54 |  |  | 
19 | CFI-HSA variant E457G; E461Q; K504H; N531G (enzyme) |  | 39 | 1.2 | 3.91 |  |  | 
20 | CFI-HSA variant E457G; E461Q; N531G; GGSSGG (SEQ ID NO: 6); CR1 (ccp15-17) (from UniProt P17927) (enzyme) | 33 | 50.3 |  |  |  |  | 
21 | CFI-HSA variant E457G; E461Q; R462K; F464Y; E530Y; N531G; P558S (enzyme) |  | 30 | 2.69 | 4.51 |  |  | 
22 | CFI-HSA variant E457G; E461Q; R462K; F464Y; K504H; N531G (enzyme) |  | 51.7 | 2 | 4.01 |  |  | 
23 | CFI-HSA variant E457G; E461Q; R462K; F464Y; N531G; R557K (enzyme) |  | 12.4 | 1.49 | 4.47 |  |  | 
24 | CFI-HSA variant E457G; E461Q; R557A (enzyme) | 36.6 | 61.8 |  |  |  |  | 

Row | Substance | iC3b EC50 [1] [nM] | C4c EC50 (nM) (human C4b (human) [2]) | iC3b Screen Ref Fold (fold of CFI-HSA wild type) [3] | C4b Screen Ref Fold (fold of CFI-HSA wild type) (human C4b (human) [4]) | iC3b Screen Ref Fold (fold of reference) [3] | C4b Screen Ref Fold (fold of reference) (human C4b (human) [4]) | other results
25 | CFI-HSA variant E457P (enzyme) |  | > 1000 |  |  | 0.07 | 0.01 | 
26 | CFI-HSA variant E461T (enzyme) |  | 125 |  |  | 1.53 | 3.24 | 
27 | CFI-HSA variant G406D; N531G (enzyme) |  |  |  |  | 0.83 | 6.15 | C4c EC50 (human C4b (human) [2]): 124 nM
28 | CFI-HSA variant G406D; N531G; P535A (enzyme) |  |  |  |  | 0.88 | 5.98 | C4c EC50 (human C4b (human) [2]): 129 nM
29 | CFI-HSA variant G406D; Y408L; N531G (enzyme) |  |  |  |  | 0.93 | 5.16 | C4c EC50 (human C4b (human) [2]): 178 nM
30 | CFI-HSA variant G406D; Y408L; N531G; P535A (enzyme) |  |  |  |  | 0.96 | 5.44 | C4c EC50 (human C4b (human) [2]): 102 nM
31 | CFI-HSA variant G406K (enzyme) |  |  |  |  | 1.28 | 0.77 | C4c EC50 (human C4b (human) [2]): 183 nM
32 | CFI-HSA variant K14A; Y20F; D26A; R35A; E38A; L304G; P305G; K306G; L307G; S308G (enzyme) |  | > 1000 |  |  | 0.04 | 4.19 | 
33 | CFI-HSA variant N404G (enzyme) |  |  |  |  | 0.94 | 0.53 | iC3b Screen Ref Fold (fold vs CFI-HSA wild type) [3]: 0.68; C4b Screen Ref Fold (fold vs CFI-HSA wild type) (human C4b (human) [5]): 0.31; C4c EC50 (human C4b (human) [2]): 310 nM
34 | CFI-HSA variant N531D (enzyme) |  | 77.2 |  |  | 1.52 | 4.91 | 
35 | CFI-HSA variant N531F (enzyme) |  | 183 |  |  | 1.09 | 1.98 | 
36 | CFI-HSA variant N531Q (enzyme) |  | 310 |  |  | 0.69 | 3.46 | 
37 | CFI-HSA variant N531S (enzyme) |  | 176 |  |  | 1.16 | 2.21 | 
38 | CFI-HSA variant P384A (enzyme) |  |  |  |  | 0.03 | 0.29 | iC3b Screen Ref Fold (fold vs CFI-HSA wild type) [3]: 0.03; C4b Screen Ref Fold (fold vs CFI-HSA wild type) (human C4b (human) [5]): 0.07; C4c EC50 (human C4b (human) [2]): > 1000 nM
39 | CFI-HSA variant T346R; Y408L; N531G (enzyme) |  |  |  |  | 0.93 | 3.42 | C4c EC50 (human C4b (human) [2]): 204 nM
40 | CFI-HSA variant Y408F; E416A; E457G; E461Q; R462K; N531G (enzyme) |  | 11.5 | 1.99 | 4.51 |  |  | 
41 | CFI-HSA variant Y408F; E457G; E461Q; F464Y; N531G (enzyme) |  | 15.1 | 1.81 | 4.43 |  |  | 
42 | CFI-HSA variant Y408F; E457G; E461Q; N531G (enzyme) |  | 51 | 1.42 | 4.63 |  |  | 
43 | CFI-HSA variant Y408F; E457G; E461Q; R462K; F464Y; N531G (enzyme) |  | 13.2 | 1.87 | 4.57 |  |  | 
44 | CFI-HSA variant Y408F; E457G; E461Q; R462K; N531G (enzyme) |  | 14.4 | 1.9 | 4.58 |  |  | 
45 | CFI-HSA variant Y408L; E416A; E457G; E461Q; R462K; N531G (enzyme) |  | 17.8 | 1.63 | 4.04 |  |  | 
46 | CFI-HSA variant Y408L; E457G; E461Q; R462K; E530F; N531G; P558S (enzyme) |  | 148 | 1.81 | 3.96 |  |  | 
47 | CFI-HSA variant Y408L; E457G; E461Q; R462K; E530Y; N531G; P558S (enzyme) |  | 27.3 | 2.06 | 4.18 |  |  | 
48 | CFI-HSA variant Y408L; E457G; E461Q; R462K; K504H; N531G (enzyme) |  | 27.5 | 0.84 | 3.83 |  |  | 
